Data reported in article PMC3059592 (Virology, 2010).
Several values for one entry are separate records, joined by “and”; a condition that tells them apart may be missing. Equal entries are not always repeated.

Biological target: the molecule itself
Experiment: sucrose density gradient centrifugation

B1: PIV-5 hemagglutinin-neuraminidase (HN) protein, mutant E37D (natural protein)
chain: MVAEDAPVRATCRVLFRTTTLIFLCTLLALSISILYDSLITQKQIMSQAGSTGSNSGLGSITDLLNNILSVANQIIYNSAVALPLQLDTLESTLLTAIKSLQTSDKLEQNCSWSAALINDNRYINGINQFYFSIAEGRNLTLGPLLNMPSFIPTATTPEGCTRIPSFSLTKTHWCYTHNVILNGCQDHVSSNQFVSMGIIEPTSAGFPFFRTLKTLYLSDGVNRKSCSISTVPGGCMMYCFVSTQPERDDYFSAAPPEQRIIIMYYNDTIVERIINPPGVLDVWATLNPGTGSGVYYLGWVLFPIYGGVIKGTSLWNNQANKYFIPQMVAALCSQNQATQVQNAKSSYYSSWFGNRMIQSGILACPLRQDLTNECLVLPFSNDQVLMGAEGRLYMYGDSVYYYQRSNSWWPMTMLYKVTITFTNGQPSAISAQNVPTQQVPRPGTGDCSATNRCPGFCLTGVYADAWLLTNPSSTSTFGSEATFTGSYLNTATQRINPTMYIANNTQIISSQQFGSSGQEAAYGHTTCFRDTGSVMVYCIYIIELSSSLLGQFQIVPFIRQVTLS
stoichiometry N: 2 and 4
